These results are taken from paper PMC6155126.

Data set [1] concerns the target Pol λ WT (Homo sapiens, UniProt Q9UGP5 1-575). The experiment in a line: EMSA; 40 or 200 nM Pol λ; EMSA: 50 mM Tris-HCl pH 7.5, 100 mM KCl, 2.5 mM MgCl2, 1 mM DTT, 4% glycerol, 0.05% Triton X-100, 0.1 mg/ml BSA, 10-20 nM DNA, 30 min at 25 °C; 4-5% native PAGE, 0.5x TBE, 4 °C. The conditions noted are these: protein: recombinant; tags: FLAG; label: 5' IRDye 700 on one strand; 5-nt gap. (In general: A gel shift assay detects complexes by their altered migration in electrophoresis.)

Data set [2] deals with PAXX (cleaved) (Homo sapiens, UniProt Q9BUH6 1-204). As to the kind of experiment: EMSA; 0.5 µM PAXX; EMSA: 50 mM Tris-HCl pH 7.5, 100 mM KCl, 2.5 mM MgCl2, 1 mM DTT, 4% glycerol, 0.05% Triton X-100, 0.1 mg/ml BSA, 10-20 nM DNA, 30 min at 25 °C; 4-5% native PAGE, 0.5x TBE, 4 °C. The following applies: protein: recombinant; tags: GST tag cleaved (PreScission); chain copies: 2; label: 5' IRDye 700 on one strand; 5-nt gap.

B1: 5nt-gapped dsDNA 30-mer (dsDNA)
DNA 1: ACTGGCCGTCGTTCTATTGTACTCACTGTGATC
DNA 2: GATCACAGTGAGTAC
DNA 3: AACGACGGCCAGT
On to B1, for which the binding result in data set [1] is listed as “binds”; in data set [2], “no binding”.
